Assay results taken from patent US20240026024A1 (SHANGHAI HUAOTA BIOPHARMACEUTICAL, published 2024).
Where two headings read alike, the source gives them in different places. Values belong to the binder of their own block, whether it stands above or below them.

Assays:
[1] = target: T1, human CD73 protein (ACRO Biosystems, Cat No. CD3-H52H7) (human, UniProt P21589 27-547); assay: SPR (Biacore T200), antibody captured on protein A chip, CD73 as analyte, 1:1 model
T1 construct: Bought protein; also called recombinant CD73 protein; recombinant CD73
T1 sequence: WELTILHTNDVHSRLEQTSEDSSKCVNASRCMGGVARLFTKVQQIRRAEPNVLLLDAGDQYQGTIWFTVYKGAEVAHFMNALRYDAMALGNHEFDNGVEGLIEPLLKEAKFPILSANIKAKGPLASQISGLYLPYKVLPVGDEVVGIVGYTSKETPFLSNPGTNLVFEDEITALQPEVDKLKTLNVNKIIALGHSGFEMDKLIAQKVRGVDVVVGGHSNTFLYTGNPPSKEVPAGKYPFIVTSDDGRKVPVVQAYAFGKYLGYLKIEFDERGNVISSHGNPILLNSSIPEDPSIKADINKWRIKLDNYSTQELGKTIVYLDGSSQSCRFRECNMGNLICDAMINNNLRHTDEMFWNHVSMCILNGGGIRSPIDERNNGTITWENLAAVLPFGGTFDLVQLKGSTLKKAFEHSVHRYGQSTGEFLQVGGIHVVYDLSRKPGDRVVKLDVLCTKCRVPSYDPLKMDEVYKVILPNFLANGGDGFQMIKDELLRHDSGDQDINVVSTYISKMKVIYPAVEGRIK
Experimental: (§1) The temperatures of the sample chamber and flow path were set at 25° C. The protein A chips separately captured the antigen-binding proteins as ligands, which were immobilized at about 100 RU. […] Ten mM Glycine, pH 1.5, was regenerated for 60 s at a flow rate of 50 μL/min for multiple cycle kinetic detection. The binding rate constant (ka), dissociation rate constant (kd) and dissociation equilibrium rate constant (KD) were fitted using the Fit local mode of a 1:1 binding model.

[2] = target: T2, rat CD73 (Novoprotein, Cat No. CB16) (rat, UniProt P21588 29-551, limits assumed); assay: SPR (Biacore T200), antibody captured on protein A chip
T2 construct: Bought protein
T2 sequence (looked up): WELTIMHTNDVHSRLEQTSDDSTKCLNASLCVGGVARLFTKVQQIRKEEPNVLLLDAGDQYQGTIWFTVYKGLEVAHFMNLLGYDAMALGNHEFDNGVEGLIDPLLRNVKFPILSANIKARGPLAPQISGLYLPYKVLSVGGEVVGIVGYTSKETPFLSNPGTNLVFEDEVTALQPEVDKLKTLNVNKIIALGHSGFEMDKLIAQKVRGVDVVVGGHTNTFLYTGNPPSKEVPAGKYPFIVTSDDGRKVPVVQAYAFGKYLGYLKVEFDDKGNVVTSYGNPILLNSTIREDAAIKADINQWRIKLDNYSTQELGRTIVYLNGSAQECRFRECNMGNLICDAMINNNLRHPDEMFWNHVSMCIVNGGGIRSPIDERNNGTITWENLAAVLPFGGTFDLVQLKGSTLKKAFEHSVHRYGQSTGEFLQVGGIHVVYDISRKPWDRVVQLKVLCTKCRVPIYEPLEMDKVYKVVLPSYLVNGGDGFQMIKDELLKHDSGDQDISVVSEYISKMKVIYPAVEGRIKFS
Experimental: as §1, with “[…]” for “μL/min”

[3] = target: T3, mouse CD73/NT5E (ACRO Biosystems, Cat No. CD3-M52H9) (mouse, UniProt Q61503 29-551); assay: as above
T3 construct: Bought protein
T3 sequence (looked up): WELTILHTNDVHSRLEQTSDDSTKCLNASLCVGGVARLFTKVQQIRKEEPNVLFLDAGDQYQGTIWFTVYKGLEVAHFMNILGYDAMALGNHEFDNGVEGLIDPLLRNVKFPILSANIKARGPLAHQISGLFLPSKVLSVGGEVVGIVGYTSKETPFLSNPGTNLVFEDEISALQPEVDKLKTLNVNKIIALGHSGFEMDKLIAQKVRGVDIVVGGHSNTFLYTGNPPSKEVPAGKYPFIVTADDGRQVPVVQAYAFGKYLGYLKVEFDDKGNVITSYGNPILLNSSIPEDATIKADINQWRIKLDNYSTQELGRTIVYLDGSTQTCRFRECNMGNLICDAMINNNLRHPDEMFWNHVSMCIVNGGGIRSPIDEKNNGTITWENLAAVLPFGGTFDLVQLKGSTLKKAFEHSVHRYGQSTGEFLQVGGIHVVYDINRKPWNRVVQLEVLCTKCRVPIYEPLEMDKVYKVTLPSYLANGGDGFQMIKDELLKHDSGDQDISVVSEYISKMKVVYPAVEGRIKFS
Experimental: as §1, with “[…]” for “μL/min”

[4] = target: T4, human CD73 on the cell surface (human, UniProt P21589 27-549); assay: flow cytometry on CHOK1-huCD73-3F4 cells, PE anti-human Fc
T4 construct: also called CHOK1-huCD73-3F4 cells; human CD73-expressing cells
T4 sequence: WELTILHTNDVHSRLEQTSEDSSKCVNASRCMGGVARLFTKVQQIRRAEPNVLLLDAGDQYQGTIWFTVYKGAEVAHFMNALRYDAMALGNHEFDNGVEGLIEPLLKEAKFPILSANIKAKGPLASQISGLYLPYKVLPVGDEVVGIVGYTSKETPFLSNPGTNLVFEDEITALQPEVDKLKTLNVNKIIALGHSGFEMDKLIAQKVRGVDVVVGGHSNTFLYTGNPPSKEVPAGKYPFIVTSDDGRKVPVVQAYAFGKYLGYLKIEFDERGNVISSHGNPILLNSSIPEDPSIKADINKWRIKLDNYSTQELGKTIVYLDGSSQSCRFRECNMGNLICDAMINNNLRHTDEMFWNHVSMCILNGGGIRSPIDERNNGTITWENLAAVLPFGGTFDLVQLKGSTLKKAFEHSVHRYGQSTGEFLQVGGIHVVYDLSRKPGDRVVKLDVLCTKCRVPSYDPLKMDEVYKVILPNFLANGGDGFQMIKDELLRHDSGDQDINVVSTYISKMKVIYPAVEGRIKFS
Experimental: (§2) All the antigen-binding proteins were diluted to 30 μg/ml with PBS solution containing 1% BSA (1% BSA/PBS), diluted at 3-fold into 11 gradients and then added to a 96-well U-shaped plate at 20 μL/well, and negative control (1% BSA/PBS was added only) was set up simultaneously. The suspension of human CD73-expressing cells (CHOK1-huCD73-3F4, Huabo Biopharm) in the logarithmic growth phase were collected and centrifuged at 1000 rpm for 5 min, and the culture medium was discarded; then the cells were resuspended with 1% BSA/PBS to a viable cell density of 1×10⁶/mL, and then added into the 96-well U-shaped plate already added with anti-CD73 antigen-binding protein at 20 μL (2×10⁴ cells)/well for reaction at room temperature for 30 min. […] After the reaction, the cells in the 96-well U-shaped plate were resuspended with 1% BSA/PBS and centrifuged at 300 g for 3 min and the supernatant was discarded; after washing in this manner 3 times, and the cells were finally resuspended with 1% BSA/PBS at 100 μL/well, and the fluorescence intensity of the PE channel was measured with a flow cytometer (BD, #Canto II).

[5] = target: T1, human CD73 protein (ACRO Biosystems, …); assay: cell-based or functional assay
[6] = target: T4, human CD73 on the cell surface; assay: cell-based or functional assay
[7] = target: T4, human CD73 on the cell surface; assay: flow cytometry on CHOK1-huCD73-3F4 cells, PE anti-human Fc; remark: listed apart in the source
Experimental: as §2

[8] = target: T4, human CD73 on the cell surface; assay: cell-based or functional assay; remark: listed apart in the source

- Kd [1]: 1.5 nM
- koff [1]: 0.000493 s⁻¹
- kon [1]: 329000 M⁻¹ s⁻¹
- binding result [2]: no binding (tested: up to 50 nM analyte)
- binding result [3]: no binding (tested: up to 50 nM analyte)
- EC50 [4]: 0.646 µg/mL
- EC50(µg/mL), inhibition of recombinant CD73 (CellTiter-Glo) [5]: 0.681 µg/mL
B1: 900694 (antibody, V domains shown)
VH: EVQLVESGGGLVKPGGSLRLSCAASGFTFSKYAMSWVRQAPGKGLEWVAEISSGGGYINYPDTVTGRFTISRDNAKNSLYLQMNSLRAEDTAVYYCARAIYYYGSSYNYYAMDYWGQGTTVTVSS
VL: DIQMTQSPSSLSASVGDRVTITCRASQDVGTAEAWYQQKPGKAPKLLIYWASTRHTGVPDRFSGSGSGTDFTLTISSLQPEDFATYYCQQYSSYPLTFGQGTKLEIK
notes: Constant regions are not restated; it was detected with anti-human Fc and captured on protein A

- EC50(µg/mL), inhibition of enzyme activity of CD73 on CHOK1-huCD73-3F4 cells [6]: 1.62 µg/mL
- EC50 [7]: 2.14 µg/mL
B2: 900565 (antibody, V domains shown)
VH: QAYLQQSGAELVRPGASVKMSCKASGYTFTSYNMHWVKQTPRQGLEWIGAIYPGNGDTSYNQKFKGKATLNVDKSSSTAYMQLSSLTSEDSAVYFCARWGYGSNYAWYFDIWGTGTTVTVSS
VL: DIQMTQSPASLSASVGETVTITCRTSGNIHNYLVWYQQKQGKSPQLLVFNAKTLADGVPSRFSGSGSGTQYSLKINSLQPEDFGSYYCQHFWSTPFTFGSGTKLEIK
notes: Chimeric antibody derived from hybridoma 115B10; it was detected with anti-human Fc

- Endocytosis efficiency (%) [8]: 44.2%
B3: 900222 (antibody, from another filing, V domains shown)
VH: QVQLVESGGGVVQPGRSLRLSCAASGFTFSNYGMHWVRQAPGKGLEWVAVILYDGSNKYYPDSVKGRFTISRDNSKNTLYLQMNSLRAEDTAVYYCARGGSSWYPDSFDIWGQGTMVTVSS
VL: DIQMTQSPSSLSASVGDRVTITCRASQGISSWLAWYQQKPEKAPKSLIYAASSLQSGVPSRFSGSGSGTDFTLTISSLQPEDFATYYCQQYNSYPLTFGGGTKVEIKR
